Test results as given in article PMC11074299.

Biological target: T1, wild-type full-length FADD (FADD^FuL) (human), Q13158
T1 chain: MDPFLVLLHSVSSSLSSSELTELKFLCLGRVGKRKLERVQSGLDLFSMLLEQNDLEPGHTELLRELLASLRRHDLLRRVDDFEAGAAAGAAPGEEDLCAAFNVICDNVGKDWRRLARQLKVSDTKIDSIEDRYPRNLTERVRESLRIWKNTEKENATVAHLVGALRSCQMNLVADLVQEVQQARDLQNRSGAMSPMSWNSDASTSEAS
Assay: cryo-EM structure; FA^FuL-C8^FuL_FGLG_CADA-CF complex; Complex A without cross-linking (7.5 Å) and Complex B stabilised by GraFix, glutaraldehyde (3.7 Å); Casp-8 protease domain and FADD DD not visible
Conditions: remark: other sources report otherwise

B1: wild-type full-length FADD (FADD^FuL), Q13158 1-208 (natural protein)
chain: MDPFLVLLHSVSSSLSSSELTELKFLCLGRVGKRKLERVQSGLDLFSMLLEQNDLEPGHTELLRELLASLRRHDLLRRVDDFEAGAAAGAAPGEEDLCAAFNVICDNVGKDWRRLARQLKVSDTKIDSIEDRYPRNLTERVRESLRIWKNTEKENATVAHLVGALRSCQMNLVADLVQEVQQARDLQNRSGAMSPMSWNSDASTSEAS
stoichiometry N: 3
